The record followed here is paper PMC10418624, “Expression and Characterization of Two α-L-Arabinofuranosidases from Talaromyces amestolkiae: Role of These Enzymes in Biomass Valorization” (International Journal of Molecular Sciences, 2023).

Data set [1] deals with T1, O=[N+]([O-])c1ccc(O[C@@H]2O[C@@H](CO)[C@H](O)[C@H]2O)cc1.
T1 construct: secreted from Pichia pastoris GS115 (pPIC9), N-glycosylated, about 37 kDa on SDS-PAGE; forward primer encodes LPTDETA after the EcoRI site, reverse primer encodes C-terminal PGLLTHK
The data set can be described thus: purified protein. The conditions noted are these: standard reaction: 50 mM sodium acetate pH 5, 50 °C, 0.1% BSA, substrate 0.0625-16 mM. The format is biochemical, Talaromyces amestolkiae.

For data set [2], the system named is T2, O=[N+]([O-])c1ccc(O[C@@H]2O[C@@H](CO)[C@H](O)[C@H]2O)cc1.
T2 construct: mature form without 18-residue signal peptide (54 bp), gene 1223 bp with one intron, 368 residues, 39 kDa, N-terminal CBM1, Ser/Thr-rich linker and GH62 domain; secreted from Pichia pastoris GS115 (pPIC9), N-glycosylated, about 50 kDa on SDS-PAGE; forward primer encodes QASLYGQ after the EcoRI site, reverse primer encodes C-terminal LLTLSK
The data set can be described thus: purified protein. The format is biochemical, Talaromyces amestolkiae. The conditions noted are these: standard reaction: 50 mM sodium acetate pH 5, 50 °C, 0.1% BSA, substrate 0.0625-16 mM.

ARA-1 (Talaromyces amestolkiae), sequence (chain, as listed by the source): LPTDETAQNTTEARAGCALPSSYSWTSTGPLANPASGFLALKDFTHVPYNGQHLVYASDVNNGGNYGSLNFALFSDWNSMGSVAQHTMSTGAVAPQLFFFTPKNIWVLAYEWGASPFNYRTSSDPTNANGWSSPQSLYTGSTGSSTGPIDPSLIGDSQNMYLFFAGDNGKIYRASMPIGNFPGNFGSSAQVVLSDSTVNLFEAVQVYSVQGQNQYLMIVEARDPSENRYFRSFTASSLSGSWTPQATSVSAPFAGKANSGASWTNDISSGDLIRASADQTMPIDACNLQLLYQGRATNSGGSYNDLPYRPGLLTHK
ARA-2 (Talaromyces amestolkiae), sequence (chain, as listed by the source): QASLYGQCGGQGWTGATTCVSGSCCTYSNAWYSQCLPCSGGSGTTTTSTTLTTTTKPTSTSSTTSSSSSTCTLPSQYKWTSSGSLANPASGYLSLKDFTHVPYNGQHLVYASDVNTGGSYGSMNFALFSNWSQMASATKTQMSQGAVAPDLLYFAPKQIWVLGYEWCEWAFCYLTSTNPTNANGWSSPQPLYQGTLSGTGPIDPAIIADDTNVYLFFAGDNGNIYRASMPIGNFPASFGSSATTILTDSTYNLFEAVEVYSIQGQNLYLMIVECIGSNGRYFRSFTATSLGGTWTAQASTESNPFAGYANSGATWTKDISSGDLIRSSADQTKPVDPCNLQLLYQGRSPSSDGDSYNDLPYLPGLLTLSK

For the substance ARA-1 (Talaromyces amestolkiae), in data set [1], the Km is on record as 8.97 ± 0.06 mM, the kcat amounted to 0.05 ± 0.001 s⁻¹ and the kcat/Km turned out to be 5 ± 0.4 M⁻¹ s⁻¹.
As for ARA-2 (Talaromyces amestolkiae), in data set [2], the Michaelis-Menten constant (Km) is on record as 1.48 ± 0.08 mM, the kcat worked out at 0.41 ± 0.01 s⁻¹ and the kcat/Km is 280 ± 10 M⁻¹ s⁻¹.

By Km is commonly meant the concentration of substrate that gives half-maximal velocity. The kcat is the maximal rate divided by the concentration of active sites. Usually kcat/Km stands for the turnover number divided by the Michaelis constant.
